Reference: the supplement of paper PMC9732359
± gives the uncertainty stated by the source.

Test: protein stability index of a GFP-peptide fusion (yeast GPS) (PSI 1-4); higher = more stable; sorted into four equal gates, so the index is relative within each strain
Procedure, shortened: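 Tiled 17-residue peptides from yeast proteins were fused downstream of GFP on a plasmid that also expresses Cherry, and the pooled library was carried in yeast. Mid-log cultures grown in leucine-free medium were sorted into four equal gates by GFP/Cherry fluorescence ratio. Plasmids from each gate were PCR-amplified and Illumina-sequenced, and reads were assigned to strains by barcodes. Each peptide's protein stability index is the sum, over gates, of the gate's read frequency multiplied by its gate number.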

Sequence | protein stability index (doa10∆) | protein stability index (pdr5∆) | protein stability index (san1∆) | protein stability index (ubr1∆)
QFGNACISLSGVPNYLV [SSN2] | 1.59 ± 0.077 | 2.05 ± 0.093 | 2.37 ± 0.21 | 2.21 ± 0.069
QFIKSNFEKILLTCYEL [SRB8] |  | 3 ± 0.23 |  | 
QFKKLTHAQRTGLSQIP [PRP8] | 2.05 ± 0.11 | 2.46 ± 0.1 | 2.12 ± 0.14 | 2.53 ± 0.12
QFLYEKHYKNIPRNSPL [RPC82] | 1.92 ± 0.068 | 1.9 ± 0.056 | 1.68 ± 0.066 | 2.08 ± 0.035
QFSESTHNDIDSTAVAL [YJL039C/NUP192] | 2.76 ± 0.098 | 2.5 ± 0.2 | 2.71 ± 0.087 | 3.16 ± 0.071
QFSQLNDPNAAVNMTQN [MED6] | 2.71 ± 0.089 | 2.91 ± 0.1 | 2.86 ± 0.039 | 2.62 ± 0.06
QFTRFFLLVPSKQVQVS [ECM29] | 1.27 ± 0.075 | 1.18 ± 0.061 | 1.19 ± 0.11 | 1.21 ± 0.072
QFVSKLVDNLNAEVVAG [BRR2] | 2.25 ± 0.042 | 2.25 ± 0.049 | 2.22 ± 0.05 | 2.19 ± 0.041
QGAKTYLERTLDTFIKI [PRE5] | 3.03 ± 0.081 | 3.18 ± 0.068 | 2.81 ± 0.067 | 3.21 ± 0.058
QGIIYAKVNRPAKIVNF [RPN5] | 2.61 ± 0.13 | 2.72 ± 0.15 | 2.37 ± 0.12 | 2.4 ± 0.16
QGNPKKRPGKLSDYIPG [CYT1] | 3.17 ± 0.066 | 3.24 ± 0.067 | 3.23 ± 0.044 | 3.17 ± 0.032
QGTGKKTASLGNSKDDL [ISW2] | 3.02 ± 0.12 | 2.9 ± 0.18 | 3.41 ± 0.057 | 3.42 ± 0.14
QHDKMVDKIFEKVNNNA [SWI1] | 3.19 ± 0.15 | 2.73 ± 0.081 | 2.87 ± 0.067 | 2.99 ± 0.041
QHEQQKQQEQLEQQKQP [YMR153W/NUP53] | 3.37 ± 0.056 | 3.35 ± 0.057 | 3.04 ± 0.049 | 3.15 ± 0.046
QHTTESDNISRKYEISF [RPB2] | 3.16 ± 0.11 | 3.17 ± 0.088 | 2.92 ± 0.098 | 3.2 ± 0.11
QHYKNNSISSQPASYHS [SSN2] | 2.56 ± 0.058 | 3.03 ± 0.067 | 3.05 ± 0.065 | 2.78 ± 0.057
QIAKFVVGLGERVSPTD [RPT1] | 2.62 ± 0.099 | 1.33 ± 0.04 | 2.05 ± 0.13 | 1.38 ± 0.051
QIIFGVVEKKTVGSSNG [RPO21] | 1.66 ± 0.11 | 1.66 ± 0.098 | 1.66 ± 0.19 | 1.6 ± 0.066
QIRDVMERFSVLCNSNI [RRP6] | 2.41 ± 0.11 | 2.82 ± 0.11 | 2.18 ± 0.15 | 2.38 ± 0.084
QITPTVPHSHPSDMVIP [SNF12] | 2.69 ± 0.044 | 2.59 ± 0.045 | 2.63 ± 0.046 | 2.59 ± 0.034
QIVPYIEKLTDGHLRAP [BRR2] | 3.04 ± 0.052 | 3.1 ± 0.043 | 3.12 ± 0.037 | 3.15 ± 0.051

Sequence | protein stability index (doa10∆) | protein stability index (pdr5∆) | protein stability index (san1∆) | protein stability index (ubr1∆)
QKIRNSEGISEATREVF [ITC1] | 3.11 ± 0.2 | 3.47 ± 0.19 | 2.81 ± 0.15 | 
QKKARTILQHLSEAWRC [PRP8] | 1.96 ± 0.11 | 1.8 ± 0.097 | 2.28 ± 0.12 | 2.55 ± 0.16
QKLFVQVSNFAPQVYII [GAL11] | 2.62 ± 0.077 | 2.45 ± 0.061 | 2.86 ± 0.065 | 2.32 ± 0.049
QKLPQYIIQGSNTNDNI [RGR1] | 3.14 ± 0.1 | 3.09 ± 0.098 | 2.48 ± 0.18 | 3.25 ± 0.091
QKLWLLECQLFPQGLNI [SSN8] | 2.16 ± 0.068 | 1.92 ± 0.06 | 1.66 ± 0.13 | 2.11 ± 0.076
QKMAELEAARSEKQNDE [PRP8] | 1.75 ± 0.11 | 1.76 ± 0.085 | 2.23 ± 0.26 | 1.8 ± 0.09
QKNFMDQFQWILRKPGK [RRI2] | 2.42 ± 0.14 | 2.66 ± 0.12 | 2.67 ± 0.15 | 2.49 ± 0.091
QKQWDDIAFVLNNLPYK [YCS4] | 2.48 ± 0.077 | 3.09 ± 0.082 | 2.97 ± 0.11 | 3.18 ± 0.086
QKYVGEGARMVRELFEM [RPT1] |  |  |  | 2.92 ± 0.24
QKYWESMRIQILRRQAI [GAL11] | 1.34 ± 0.091 | 2.25 ± 0.087 | 1.65 ± 0.16 | 2.1 ± 0.058
QLAQIRQFLKANKTNLI [YML103C/NUP188] | 2.65 ± 0.057 | 2.81 ± 0.068 | 2.86 ± 0.049 | 2.93 ± 0.04
QLELRQLNASISLIPEL [RRI2] | 2.55 ± 0.062 | 2.58 ± 0.069 | 2.42 ± 0.063 | 2.85 ± 0.043
QLETLTGSIRHRLKLCK [CSE2] | 3.32 ± 0.26 | 3.05 ± 0.17 |  | 2.97 ± 0.21
QLFRTNKVQIMIATNVA [PRP28] | 1.5 ± 0.055 | 1.43 ± 0.064 | 1.48 ± 0.081 | 1.7 ± 0.036
QLGYIENSFYKKEASKT [POP1] | 2.27 ± 0.061 | 2.43 ± 0.058 | 2.43 ± 0.056 | 2.39 ± 0.044
QLIGSNIELHSLYTSRE [PUP1] | 3.33 ± 0.25 | 3.33 ± 0.2 | 3.34 ± 0.26 | 2.91 ± 0.2
QLIKVAVHNGGRKHVAA [RPL9A] | 2.47 ± 0.091 | 2.85 ± 0.087 | 2.66 ± 0.097 | 2.72 ± 0.03
QLKIQNRQAAASVVPSA [RPL12A] | 1.82 ± 0.035 | 2.48 ± 0.042 | 2.05 ± 0.051 | 2.08 ± 0.03
QLKNVQLDSYLVNGFSQ [MED2] | 2.49 ± 0.062 | 2.68 ± 0.088 | 2.24 ± 0.11 | 2.49 ± 0.042
QLNASISLIPELSVVLS [RRI2] | 2.67 ± 0.064 | 2.96 ± 0.06 | 2.98 ± 0.044 | 2.73 ± 0.039
